# From IntAct's records for PubMed 18626018
# B1: CREB-regulated transcription coactivator 2 (Mus musculus), Q3U182 (parent)
# chain: MATSGANGPGSATASASNPRKFSEKIALQKQRQAEETAAFEEVMMDIGSTRLQAQKLRLAYTRSSHYGGSLPNVNQIGCGLAEFQSPLHSPLDSSRSTRHHGLVERVQRDARRMVSPLRRYPRHIDSSPYSPAYLSPPPESGWRRMMPWGNLPAEKGQLFRLPSALNRTSSDSALHTSVMNPNPQDTYPGPTPPSVLPSRRGGGFLDGEMDAKVPAIEENVVDDKHLLKPWDAKKLSSSSSRPRSCEVPGINIFPSPDQPANVPVLPPAMNTGGSLPDLTNLHFPPPLPTPLDPEETVYPSLSGGNSTTNLTHTMTHLGISGGLGLGPSYDVPGLHSPLSHPSLQSSLSNPNLQASLSSPQPQLQGSHSHPSLPASSLAHHALPTTSLGHPSLSAPALSSSSSSSSTSSPVLSAPPYPASTPGASPRHRRVPLSPLSLPAGPADARRSQQQLPKQFSPTMSPTLSSITQGVPLDTSKLPTDQRLPPYPYSPPSLVIPTHPPTPKSLQQLPSQACLVQPSGGQPPGRQPHYGALYPPGSSGHGQQPYHRPINDFSLGNLEQFNMESPSTSLVLDPPAFSEGPGFLGSEGSMSGPQDPHVLNHQNLTHCSRHGSGPNIILTGDSSPGFSKEIAAALAGVPGFEVSASGLELGLGLEDELRMEPLGLEGLTMLSDPCALLPDPAVEDSFRSDRLQ
# Key:
# [1] = variants of: B1; conditions: with 1433b_human YWHAB
# [2] = variants of: B1; conditions: with mark2_human MARK2, Q7KZI7
# Chain of mark2_human MARK2, Q7KZI7 (Q7KZI7 whole entry): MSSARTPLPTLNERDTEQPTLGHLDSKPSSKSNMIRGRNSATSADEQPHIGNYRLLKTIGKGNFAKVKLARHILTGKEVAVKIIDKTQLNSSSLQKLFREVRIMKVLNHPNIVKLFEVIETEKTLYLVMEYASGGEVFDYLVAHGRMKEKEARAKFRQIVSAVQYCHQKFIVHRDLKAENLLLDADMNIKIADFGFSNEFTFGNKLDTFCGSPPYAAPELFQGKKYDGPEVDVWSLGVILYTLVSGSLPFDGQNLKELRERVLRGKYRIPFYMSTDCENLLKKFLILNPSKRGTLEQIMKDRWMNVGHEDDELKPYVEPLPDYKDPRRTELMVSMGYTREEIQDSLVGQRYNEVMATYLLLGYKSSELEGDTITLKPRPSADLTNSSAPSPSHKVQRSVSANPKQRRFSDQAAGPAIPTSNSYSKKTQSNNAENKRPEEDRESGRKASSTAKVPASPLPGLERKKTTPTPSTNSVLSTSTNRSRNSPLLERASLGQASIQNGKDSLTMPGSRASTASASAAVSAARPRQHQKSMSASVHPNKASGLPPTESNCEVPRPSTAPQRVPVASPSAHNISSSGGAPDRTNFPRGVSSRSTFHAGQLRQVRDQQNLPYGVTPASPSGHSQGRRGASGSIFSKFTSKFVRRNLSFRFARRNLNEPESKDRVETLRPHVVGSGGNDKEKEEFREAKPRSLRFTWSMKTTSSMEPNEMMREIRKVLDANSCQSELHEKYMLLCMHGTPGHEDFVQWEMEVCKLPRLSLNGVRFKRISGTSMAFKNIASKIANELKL
# [3] = variants of: B1; conditions: with aapk1_human PRKAA1, Q13131
# Chain of aapk1_human PRKAA1, Q13131 (Q13131 whole entry, looked up): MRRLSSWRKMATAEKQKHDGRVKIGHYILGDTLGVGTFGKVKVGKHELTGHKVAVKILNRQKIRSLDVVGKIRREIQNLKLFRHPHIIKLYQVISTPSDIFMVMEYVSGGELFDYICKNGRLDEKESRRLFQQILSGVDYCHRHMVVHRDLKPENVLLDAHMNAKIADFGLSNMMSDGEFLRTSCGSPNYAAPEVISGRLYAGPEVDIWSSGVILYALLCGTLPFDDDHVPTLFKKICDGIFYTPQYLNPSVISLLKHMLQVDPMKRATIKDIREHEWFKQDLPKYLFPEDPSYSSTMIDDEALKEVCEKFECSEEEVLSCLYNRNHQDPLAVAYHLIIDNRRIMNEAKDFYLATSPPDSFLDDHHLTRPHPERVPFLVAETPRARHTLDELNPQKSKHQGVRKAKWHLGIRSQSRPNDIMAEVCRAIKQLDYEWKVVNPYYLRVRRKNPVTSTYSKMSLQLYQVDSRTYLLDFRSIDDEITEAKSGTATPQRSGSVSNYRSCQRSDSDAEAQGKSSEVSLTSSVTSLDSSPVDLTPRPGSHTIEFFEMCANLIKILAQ
# [4] = variants of: B1; conditions: with mark3_human MARK3, P27448
# Chain of mark3_human MARK3, P27448 (P27448 whole entry, looked up): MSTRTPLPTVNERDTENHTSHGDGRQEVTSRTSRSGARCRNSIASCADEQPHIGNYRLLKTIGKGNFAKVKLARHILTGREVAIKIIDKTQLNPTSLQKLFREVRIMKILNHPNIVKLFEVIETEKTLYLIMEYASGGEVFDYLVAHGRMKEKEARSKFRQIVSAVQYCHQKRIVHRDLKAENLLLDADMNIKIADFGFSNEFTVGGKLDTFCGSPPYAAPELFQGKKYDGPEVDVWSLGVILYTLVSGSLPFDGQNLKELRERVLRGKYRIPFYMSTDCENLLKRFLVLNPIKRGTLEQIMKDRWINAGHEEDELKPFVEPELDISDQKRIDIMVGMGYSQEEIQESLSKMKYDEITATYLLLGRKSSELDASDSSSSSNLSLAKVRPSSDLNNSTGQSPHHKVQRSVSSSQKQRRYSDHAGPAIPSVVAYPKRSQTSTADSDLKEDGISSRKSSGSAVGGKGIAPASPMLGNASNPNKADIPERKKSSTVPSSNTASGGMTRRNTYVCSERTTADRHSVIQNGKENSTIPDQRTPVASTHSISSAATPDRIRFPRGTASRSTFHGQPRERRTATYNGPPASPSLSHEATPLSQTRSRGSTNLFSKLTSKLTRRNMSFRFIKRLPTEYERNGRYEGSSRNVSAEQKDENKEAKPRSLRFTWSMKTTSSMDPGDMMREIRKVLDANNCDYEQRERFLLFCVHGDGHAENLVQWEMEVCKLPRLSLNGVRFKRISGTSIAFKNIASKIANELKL
Variant,effect of a mutation on the interaction [1],effect of a mutation on the interaction [2],effect of a mutation on the interaction [3],effect of a mutation on the interaction [4]
S171A;S275A,disrupting interaction,–,–,–
S275A,–,disrupting interaction,disrupting interaction,disrupting interaction
S171A,disrupting interaction,disrupting interaction,disrupting interaction,disrupting interaction
